{
  "source": "patent US20030143647A1",
  "about": "(UNIVERSITY OF PITTSBURGH OF THE COMMONWEALTH SYSTEM OF …, published 2003)",
  "data": [
    {"biological_target": "T1, HLA-A2.1 molecules on T2 cells (human)", "T1 construct": "MHC class I molecule on the surface of T2 cells; also called HLA-A*0201", "assay": "HLA class I stabilization assay on T2 cells, MA2.1 staining, flow cytometry", "description": "HLA Class I stabilization assays. Peptide-induced stabilization of HLA-A2.1 molecules on T2 cells was done as previously described (Zeh et al., Hum. Immunol., 39(2), 79-86 (1994)). 2×10⁵ T2 cells were incubated with […] of the indicated synthetic peptides in […] human B2m (Calbiochem, La Jolla, Calif.) for 18-20 hours at room temperature. The cells were then stained with the HLA-A2.1-specific antibody, MA2.1, for 45 minutes, washed with FACS Buffer (PBS, 5% FBS, and 0.01% sodium azide), and stained with a secondary FITC-conjugated anti-IgG antibody (Biosource International, Camarillo, Calif.). The cells were fixed in 4% formaldehyde prior to flow cytometry analysis. The negative control consisted of T2 cells without peptide. The positive control consisted of T2 cells loaded with the Flu matrix peptide, […]. Flow cytometric analysis was done using a FACScan flow cytometer (Becton-Dickinson). Experimental results are depicted as X-Fold increase=(Mean Fluorescent Intensity of T2 cells loaded with peptide/Mean Fluorescent Intensity of T2 cells with no peptide).", "units": {"HLA-A2.1 Binding (X-Fold increase of MFI)": "fold"}, "values": [
      {"binder": "AGYLMELCV (Synthesized by F-moc chemistry, with leucine at positions 4 and 7; also called P1)", "note": "[Cyclin B1 peptide from the tumor, SEQ ID NO: 1 (AGYLMELCV)]", "HLA-A2.1 Binding (X-Fold increase of MFI)": 1.6},
      {"binder": "AGYLMELCF (Synthesized by F-moc chemistry, with leucine at positions 4 and 7; also called P3)", "note": "[Cyclin B1 peptide from the tumor, SEQ ID NO: 3 (AGYLMELCF)]", "HLA-A2.1 Binding (X-Fold increase of MFI)": 1.42},
      {"binder": "AGYLMELCC (also called P4)", "note": "[Cyclin B1 peptide from the tumor, SEQ ID NO: 4 (AGYLMELCC)]", "HLA-A2.1 Binding (X-Fold increase of MFI)": 1.61},
      {"binder": "AGYLMELCM (Synthesized by F-moc chemistry, with leucine at positions 4 and 7; also called P2)", "note": "[Cyclin B1 peptide from the tumor, SEQ ID NO: 2 (AGYLMELCM)]", "HLA-A2.1 Binding (X-Fold increase of MFI)": 1.48},
      {"binder": "AKYLMELTML (also called HeLa-derived cyclin B1 peptide)", "note": "[Human cyclin B1 peptide from the database, SEQ ID NO: 8 (AKYLMELTML)]", "HLA-A2.1 Binding (X-Fold increase of MFI)": 2.25},
      {"binder": "AKYLMELTM (also called HeLa-derived cyclin B1 peptide)", "note": "[Human cyclin B1 peptide from the database, SEQ ID NO: 7 (AKYLMELTM)]", "HLA-A2.1 Binding (X-Fold increase of MFI)": 2.28},
      {"binder": "AGYLMELCMA (Synthesized by F-moc chemistry, with leucine at positions 4 and 7)", "note": "[Cyclin B1 peptide from the tumor, SEQ ID NO: 5 (AGYLMELCMA)]", "HLA-A2.1 Binding (X-Fold increase of MFI)": 1.58},
      {"binder": "AGYLMELCFA (Synthesized by F-moc chemistry, with leucine at positions 4 and 7)", "note": "[Cyclin B1 peptide from the tumor, SEQ ID NO: 6 (AGYLMELCFA)]", "HLA-A2.1 Binding (X-Fold increase of MFI)": 2.08}
    ]}
  ]
}
